{
  "source": "patent US20240294890",
  "about": "“SYSTEMS, METHODS, AND COMPOSITIONS FOR RNA-GUIDED RNA-TARGETING CRISPR EFFECTORS” (MASSACHUSETTS INSTITUTE OF TECHNOLOGY, published 2024)",
  "binders": {"B1": {"name": "DisCas7-11 non-targeting crRNA ; MS2 target 153 nt (ssRNA ; ssRNA)", "RNA 1": "GGUUGGAAAGCCGGUUUUCUUUGAUGUCACGGAACCGCCAAUAUAACAAUACAGGUAUUAUAGUUG", "RNA 2": "GGGGCAAACUCCGGCAUCUACUAAUAGACGCCGGCCAUUCAAACAUGAGGAUUACCCAUGUCGAAGACAACAAAGAAGUUCAACUCUUUAUGUAUUGAUCUUCCUCGCGAUCUUUCUCUCGAAAUUUACCAAUCAAUUGCUUCUGUCGCUACU"}},
  "molecular_target": "T1, DisCas7-11 (Desulfonema ishimotonii)",
  "T1 chain": "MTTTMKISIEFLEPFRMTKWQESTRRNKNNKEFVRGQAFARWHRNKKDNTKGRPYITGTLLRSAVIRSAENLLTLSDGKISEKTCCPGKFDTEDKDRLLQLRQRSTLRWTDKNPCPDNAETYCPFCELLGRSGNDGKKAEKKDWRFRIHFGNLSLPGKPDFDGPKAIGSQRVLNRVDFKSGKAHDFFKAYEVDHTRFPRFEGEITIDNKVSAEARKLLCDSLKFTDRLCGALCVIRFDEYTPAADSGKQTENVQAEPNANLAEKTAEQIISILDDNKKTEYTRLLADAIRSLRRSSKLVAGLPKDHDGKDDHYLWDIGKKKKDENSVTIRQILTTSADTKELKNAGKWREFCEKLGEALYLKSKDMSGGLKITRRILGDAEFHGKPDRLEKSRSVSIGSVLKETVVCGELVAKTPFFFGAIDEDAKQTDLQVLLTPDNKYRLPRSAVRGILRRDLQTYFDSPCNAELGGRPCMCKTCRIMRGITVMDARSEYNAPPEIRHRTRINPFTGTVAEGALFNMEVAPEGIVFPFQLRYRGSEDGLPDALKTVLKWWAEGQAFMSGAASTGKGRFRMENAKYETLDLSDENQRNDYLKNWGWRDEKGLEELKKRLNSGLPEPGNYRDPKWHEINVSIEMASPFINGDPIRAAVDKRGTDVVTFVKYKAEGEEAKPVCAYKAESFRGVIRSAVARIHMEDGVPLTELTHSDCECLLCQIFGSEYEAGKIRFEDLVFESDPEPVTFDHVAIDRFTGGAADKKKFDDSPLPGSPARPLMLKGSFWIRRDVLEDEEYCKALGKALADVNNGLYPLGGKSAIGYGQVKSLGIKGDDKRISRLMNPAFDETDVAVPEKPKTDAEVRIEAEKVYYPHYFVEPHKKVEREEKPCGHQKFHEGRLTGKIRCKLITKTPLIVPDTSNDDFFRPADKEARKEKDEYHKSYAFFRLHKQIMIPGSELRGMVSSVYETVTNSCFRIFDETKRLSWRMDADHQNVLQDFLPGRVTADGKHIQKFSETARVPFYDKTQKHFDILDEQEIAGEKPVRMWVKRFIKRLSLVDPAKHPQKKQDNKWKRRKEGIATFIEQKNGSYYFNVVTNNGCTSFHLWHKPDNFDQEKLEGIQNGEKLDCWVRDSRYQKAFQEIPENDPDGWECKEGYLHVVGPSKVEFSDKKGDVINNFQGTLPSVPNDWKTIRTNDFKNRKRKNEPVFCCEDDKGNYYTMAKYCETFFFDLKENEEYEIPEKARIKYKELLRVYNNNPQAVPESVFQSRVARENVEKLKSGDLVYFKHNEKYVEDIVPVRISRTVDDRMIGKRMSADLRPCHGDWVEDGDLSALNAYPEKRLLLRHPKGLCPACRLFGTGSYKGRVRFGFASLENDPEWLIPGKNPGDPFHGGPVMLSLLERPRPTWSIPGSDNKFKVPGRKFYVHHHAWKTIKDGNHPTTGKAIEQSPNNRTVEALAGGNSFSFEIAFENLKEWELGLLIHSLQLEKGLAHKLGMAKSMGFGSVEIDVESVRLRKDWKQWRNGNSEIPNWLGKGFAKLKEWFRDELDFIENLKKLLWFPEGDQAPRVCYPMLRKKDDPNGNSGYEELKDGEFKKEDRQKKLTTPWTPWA",
  "assay": "EMSA; target binding crRNA-dependent; non-targeting control",
  "settings": "tags: Twin-Strep-SUMO tag cleaved off during purification; label: Cy5.5 body label",
  "procedure": "Electrophoretic mobility shift assays (EMSA) for crRNA-target interactions and quantification of EMSA intensities were performed (FIGS. 17A-F). The EMSA assays for targeting crRNA in the absence of DisCas7-11 show minimal binding of the cRNA and shift of the labeled target).",
  "data": [
    {"binder": "B1", "values": [
      {"measurement": "binding result", "result": "no binding"}
    ]}
  ]
}
